Measurements from patent US20220372130A1 (MITSUBISHI TANABE PHARMA, published 2022).

T1: human IL-33 protein (residue 112 to residue 270) (ATGen, ILC070) (human, UniProt O95760 112-270)
T1 construct: Bought protein (ATGen, ILC070); also called IL-33 (residue 112 to residue 270)
T1 sequence: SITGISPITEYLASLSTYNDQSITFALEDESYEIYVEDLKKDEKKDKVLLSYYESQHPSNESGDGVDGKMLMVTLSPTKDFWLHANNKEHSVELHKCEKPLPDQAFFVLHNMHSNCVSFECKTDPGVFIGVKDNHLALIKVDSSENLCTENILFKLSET


Biological target: T1, human IL-33 protein (residue 112 to …)
Experiment: KinExA
Experimental: Five types of human IL-33 antibodies (A10-1C04, A23-1A05, A25-2CO2, A25-3H04 and A26-1F02) along with mouse sST2-Fc, which is a fusion protein of mouse ST2 and human IgG1 constant region, were prepared with recombinant CHO cells (WO 2015/099175).

Row | Binder | Kd [pM]
1 | A10-1C04 (antibody, human IgG1, lambda, V domains shown, Prepared with recombinant CHO cells; constant region said to be preferably human IgG1; also called human IL-33 antibody; human anti-IL-33 monoclonal antibody) VH: EVQLLESGGGLVQPGGSLRLSCAASGFTFSDYYMNWVRQAPGKGLEWVSSISRYSSYIYYADSVKGRFTISRDNSKNTLYLQMNSLRAEDTAVYYCARDIGGMDVWGQGTLVTVSS VL: QSVLTQPPSASGTPGQRVTISCTGSSSNIGAVYDVHWYQQLPGTAPKLLIYRNNQRPSGVPDRFSGSKSGTSASLAISGLRSEDEADYYCQTYDSSRWVFGGGTKLTVLG | 100
2 | A25-2C02 (antibody, human IgG1, lambda, V domains shown, Prepared with recombinant CHO cells; constant region said to be preferably human IgG1; also called A25-2CO2; human IL-33 antibody) VH: EVQLLESGGGLVQPGGSLRLSCAASGFTFSNYYMHWVRQAPGKGLEWVSSISARSSYIYYADSVKGRFTISRDNSKNTLYLQMNSLRAEDTAVYYCARLATRNNAFDIWGQGTLVTVSS VL: QSVLTQPPSASGTPGQRVTISCSGSSSNIGRNAVNWYQQLPGTAPKLLIYASNMRVSGVPDRFSGSKSGTSASLAISGLRSEDEADYYCWAWDDSQKVGVFGGGTKLTVLG | 0.7
3 | A26-1F02 (antibody, human IgG1, lambda, V domains shown, Prepared with recombinant CHO cells; constant region said to be preferably human IgG1; also called human IL-33 antibody; human anti-IL-33 monoclonal antibody) VH: EVQLLESGGGLVQPGGSLRLSCAASGFTFSNYYMHWVRQAPGKGLEWVSSISARSSYLYYADSVKGRFTISRDNSKNTLYLQMNSLRAEDTAVYYCARLATRHVAFDIWGQGTLVTVSS VL: QSVLTQPPSASGTPGQRVTISCSGSSSNIGNNAVNWYQQLPGTAPKLLIYASNMRRPGVPDRFSGSKSGTSASLAISGLRSEDEADYYCEAWDDSQKAVVFGGGTKLTVLG | 5.3
4 | A25-3H04 (antibody, human IgG1, lambda, V domains shown, Prepared with recombinant CHO cells; constant region said to be preferably human IgG1; also called human IL-33 antibody; human anti-IL-33 monoclonal antibody) VH: EVQLLESGGGLVQPGGSLRLSCAASGFTFSRYYMHWVRQAPGKGLEWVSSISAQSSHIYYADSVEGRFTISRDNSKNTLYLQMNSLRAEDTAVYYCARLATRQNAFDIWGQGTLVTVSS VL: QSVLTQPPSASGTPGQRVTISCSGSSSNIGRNAVNWYQQLPGTAPKLLIYASNMRRSGVPDRFSGSKSGTSASLAISGLRSEDEADYYCSAWDDSQKVVVFGGGTKLTVLG | 7.7
5 | A23-1A05 (antibody, human IgG1, lambda, V domains shown, Prepared with recombinant CHO cells; constant region said to be preferably human IgG1; also called human IL-33 antibody; human anti-IL-33 monoclonal antibody) VH: EVQLLESGGGLVQPGGSLRLSCAASGFTFSNYYMHWVRQAPGKGLEWVSSISARSRYHYYADSVKGRFTISRDNSKNTLYLQMNSLRAEDTAVYYCARLATRHNAFDIWGQGTLVTVSS VL: QSVLTQPPSASGTPGQRVTISCSGSSSNIGNNAVSWYQQLPGTAPKLLIYASNMRVIGVPDRFSGSKSGTSASLAISGLRSEDEADYYCGAWDDSQKALVFGGGTKLTVLG | 195
